Results on seven molecules are retold here after patent US20200040085A1 (Chugai, published 2020).

In test [1] the target is T1, recombinant HLA-DQ8/gliadin peptide (human).
T1 chain 1: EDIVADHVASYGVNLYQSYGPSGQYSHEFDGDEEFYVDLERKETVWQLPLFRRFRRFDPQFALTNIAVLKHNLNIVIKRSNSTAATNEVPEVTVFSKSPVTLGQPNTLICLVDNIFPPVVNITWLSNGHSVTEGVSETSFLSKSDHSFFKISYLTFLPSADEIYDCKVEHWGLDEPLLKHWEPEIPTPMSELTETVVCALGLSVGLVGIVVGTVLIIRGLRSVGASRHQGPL
T1 chain 2: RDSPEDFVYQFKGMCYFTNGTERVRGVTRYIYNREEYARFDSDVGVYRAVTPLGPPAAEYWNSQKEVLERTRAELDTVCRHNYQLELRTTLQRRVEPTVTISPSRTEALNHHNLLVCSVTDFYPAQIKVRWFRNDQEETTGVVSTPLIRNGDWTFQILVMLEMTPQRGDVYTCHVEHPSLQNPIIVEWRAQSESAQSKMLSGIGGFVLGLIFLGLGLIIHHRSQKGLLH
As to the kind of experiment: SPR Biacore T200, 37 C, pH 7.4; antibody captured by anti-human Fc, pMHC injected; 1:1 model. The procedure: The affinity of the anti-HLA-DQ2.5/8 antibodies for binding to human HLA-DQ2.5/gliadin peptide and HLA-DQ8/gliadin peptide at pH 7.4 was determined at 37 degrees C. using the Biacore T200 instrument (GE Healthcare). Anti-human Fc (GE Healthcare) was immobilized onto all flow cells of a CM4 sensor chip using an amine coupling kit (GE Healthcare). All antibodies and analytes were prepared in ACES, pH 7.4 containing 20 mM ACES, 150 mM NaCl, 0.05% Tween 20, 0.005% NaN₃. Each antibody was captured onto the sensor surface by anti-human Fc. Antibody capture levels were aimed at 200 resonance units (RUs). A recombinant human HLA-DQ2.5/gliadin peptide was injected at […] prepared by four-fold serial dilution, followed by dissociation, whereas a recombinant human HLA-DQ8/gliadin peptide was injected at 50 to 200 nM prepared by four-fold serial dilution, followed by dissociation. The sensor surface was regenerated each cycle with 3M MgCl₂. Binding affinity was determined by processing and fitting the data to a 1:1 binding model using the Biacore T200 Evaluation software, version 2.0 (GE Healthcare). A commercially available antibody (SPV-L3) was tested as comparison.

Test [2] concerns the target complex of the invariant chain and HLA-DQ on Raji cells (UniProt P04233 1-296). As to the kind of experiment: cell-based or functional assay.
The target in test [3] is T1, recombinant HLA-DQ8/gliadin peptide. The test can be described thus: bead-based flow cytometry: HLA-DQ8/gliadin peptide on beads, antibody titrated, blocking of SP3.4 TCR-PE binding [panel DQ8/SP3.4 TCR neutralization]. As to the method:
Streptavidin-coated yellow particles (Spherotech, SVFB-2552-6K) were incubated in blocking buffer (2% BSA in PBS) for 30 minutes with shaking at room temperature. After centrifugation and aspiration of the supernatant, 0.167 micro g/mL of soluble […] was then added as 1.2E+4 beads/micro L solution and immobilized for 60 minutes with shaking at room temperature in 96 well plates (Sigma Aldrich, Cat No. M2686). […] The final concentration of HLA-DQ8/gliadin peptide was 0.075 micro g/mL. The plates were washed with blocking buffer, and serially diluted anti-HLA-DQ2.5/8 antibodies were added and incubated for 60 minutes with shaking at room temperature. […] Data acquisition was performed on LSR Fortessa (Becton Dickinson), followed by analysis using the FlowJo software (Tree Star) and the GraphPad Prism software (GraphPad).

For test [4], the target named is T2, HLA-DQ2.5 (HLA-DQA1*0501, HLA-DQB1*0201) on Ba/F3 cells (human, UniProt P01909 24-216, limits assumed).
T2 construct: whole, on cells; Expressed from cDNA in mouse Ba/F3 cells; also called Ba/F3-HLA-DQ2.5
As to the kind of experiment: FACS on Ba/F3-HLA-DQ2.5 cells. As to the method: (§1) Binding of antiHLA-DQ2.5/8 antibodies to HLA-DQ2.5-expressing Ba/F3 cells (Ba/F3-HLA-DQ2.5), Ba/F3-HLA-DQ8, Ba/F3-HLA-DR, Ba/F3-HLA-DP, Ba/F3-cynoDQ C1, Ba/F3-cynoDQ C2, and Ba/F3-cynoDQ C3 was tested.
(§2) Anti-HLA-DQ2.5/8 antibodies were incubated with each cell line for 30 minutes at room temperature and washed with FACS buffer (2% FBS, 2 mM EDTA in PBS). Goat F(ab′)2 anti-Human IgG, Mouse ads-PE (Southern Biotech, Cat. 2043-09) was then added and incubated for 20 minutes at 4 degrees C. and washed with FACS buffer. Data acquisition was performed on an FACS Verse (Becton Dickinson), followed by analysis using the FlowJo software (Tree Star) and the GraphPad Prism software (GraphPad).

In test [5] the target is T3, HLA-DQ8 (HLA-DQA1*0301, HLA-DQB1*0302) on Ba/F3 cells (human, UniProt P01909 24-216; P01920 33-230, limits assumed).
T3 construct: whole, on cells; Expressed from cDNA in mouse Ba/F3 cells; also called Ba/F3-HLA-DQ8
T3 MHC II alpha: not shown
T3 MHC II beta: not shown
As to the kind of experiment: FACS on Ba/F3-HLA-DQ8 cells. The procedure:
as §1, §2

Test [6] addresses T4, cynomolgus monkey MHC-DQ allele #1 (MHC DQA1*M2-1, MHC DQB1*M2-1) on Ba/F3 cells (cynomolgus monkey).
T4 construct: also called Ba/F3-cynoDQ C1; cynoDQ C1
T4 MHC II alpha: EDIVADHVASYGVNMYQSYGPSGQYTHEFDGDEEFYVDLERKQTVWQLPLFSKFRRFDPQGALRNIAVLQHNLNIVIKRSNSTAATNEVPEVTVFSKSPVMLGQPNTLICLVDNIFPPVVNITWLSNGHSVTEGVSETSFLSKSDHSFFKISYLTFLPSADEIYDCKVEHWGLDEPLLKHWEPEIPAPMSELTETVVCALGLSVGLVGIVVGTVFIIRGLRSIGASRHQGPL
T4 MHC II beta: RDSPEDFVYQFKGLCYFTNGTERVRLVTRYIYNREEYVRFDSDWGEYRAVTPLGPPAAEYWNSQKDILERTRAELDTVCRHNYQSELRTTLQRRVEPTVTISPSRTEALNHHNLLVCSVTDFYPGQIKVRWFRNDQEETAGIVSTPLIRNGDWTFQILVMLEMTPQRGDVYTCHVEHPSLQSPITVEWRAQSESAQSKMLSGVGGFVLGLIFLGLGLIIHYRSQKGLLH
As to the kind of experiment: FACS on Ba/F3-cynoDQ C1 cells, PE-labelled anti-human IgG secondary [panel Ba/F3-cynoDQ C1]. The procedure: as §1, §2

Sequence of complex of the invariant chain and HLA-DQ on Raji cells (P04233 whole entry, change not shown, one chain of several): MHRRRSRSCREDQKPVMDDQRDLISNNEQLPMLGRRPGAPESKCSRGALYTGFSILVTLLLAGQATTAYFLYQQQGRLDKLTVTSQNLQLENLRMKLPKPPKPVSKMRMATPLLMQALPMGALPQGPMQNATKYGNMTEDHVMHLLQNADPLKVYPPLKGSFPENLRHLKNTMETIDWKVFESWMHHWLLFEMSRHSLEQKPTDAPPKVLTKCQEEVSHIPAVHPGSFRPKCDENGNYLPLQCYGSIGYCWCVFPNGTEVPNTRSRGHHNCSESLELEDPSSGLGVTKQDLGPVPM

B1: DQN0177 (antibody, human IgG1, kappa, V domains shown)
VH: QSVEESGGRLVTPGTPLTLTCTVSGFSLSSYAMSWVRQAPGKGLEWIGVISYSGRTYDASWAKGRFTISKTSTTVDLKITSPTTEDTATYFCARVGDSYGYAYATVIFTYHFNLWGPGTLVTVSS
VL: DPVLTQTPSSASEPVGGTVTIKCQASESISSSLAWYQQKPGQRPKLLIYDASKLASGVPSRFKGSGSGTEFTLTISGVQCDDAATYYCQHGLSSGSTNRCAFGGGTKVEIKR
notes: also called DQN0177aa
For B1, in test [1], the Kd came out at 3.67 nM, the koff came out at 0.00137 s⁻¹ and the kon was 374000 M⁻¹ s⁻¹.

B2: DQN0089 (antibody, human IgG1, kappa, V domains shown)
VH: QEQVVEYGGDLVQPEGSLTLTCKASGLDFSSTYYMCWVRQAPGKGLEWIGCIYGGSSDSTYYASWAKGRFTISKTSPTTVTLQMTSLTAADTATHFCATYDYGAVGYDLWGPGTLVTVSS
VL: EVVVTQTPASVEVAVGGTVTIKCQASQNISPYLSWYQQKPGQPPKLLIYKASTLASGVSSRFKGSGSGTQFTLTISDLECADAATYYCQNNYGVSINYGHTFGGGTKVEIKR
As for B2, the “ratio [MFI (PE/FITC) without Cytochalasin D, Dynasore]/[MFI (PE/FITC) with Cytochalasin D, Dynasore] on Raji cells (invariant chain-mediated internalization)” value in test [2] was roughly 3.

B3: DQN0016 (antibody, human IgG1, kappa, V domains shown)
VH: QSLEESGGDLVKPGASLTLTCTASGFSFSSRYWMCWVRQAPGKGLEWIACIDAGSSGITYYASWANGRFTISKTSSTTVTLQMTSLTAADTATYFCARDAWSTTDGWNTFNLWGPGTLVTVSS
VL: DVVMTQTPASVSAAVGGTVTIKCQASQSIGSNLNWYQQKPGQSPKLLIYSASTLASGVPSRFKGSGSGTEYTLTISNLECADAATYYCQSYYYTGSSAVNNFGGGTKVEIKR
notes: Rabbit B-cell derived variable regions recombined with F1332m heavy and hkOMC light constant regions; expressed in FreeStyle 293-F cells; also called DQN0016cc
As for B3, the Kd in test [1] worked out at 151 nM. For the same molecule, the “IC50 (read off the curve)” value in test [3] was roughly 0.2 µg/mL.

B4: DQN0092 (antibody, human IgG1, kappa, V domains shown)
VH: QSVEESGGRLVTPGTPLTLTCTVSGFSLSSYYISWVRQAPGKGLEWIGIIYTDGVTDYPNWAKGRFTISKTSTTVDLKITSPTTEDTATYFCARDAASVYGCGYFDLWGPGTLVTVSS
VL: TFKLTQTPASVEAAVGGTVTIKCQASESNGNALAWYQQKPGQPPKLLIYRAFTLASGVPSRLKGSGSGTQFALTISDLECADAATYYCQTYYGSNTDFNAFGGGTKVEIKR
notes: Rabbit variable regions with F1332m and hkOMC constant regions; also called DQN0092hh
Consider B4, for which, in test [1], the Kd worked out at 7.28 nM. The koff in test [1] worked out at 0.00122 s⁻¹. Moreover, the kon in test [1] was 168000 M⁻¹ s⁻¹. For the same molecule, the figures for the binding result in test [4], in test [5] and in test [6] were “binds”, “binds” and “no binding”, respectively.

B5: DQN0100 (antibody, human IgG1, kappa, V domains shown)
VH: QQQLEESGGGLVKPGASLTLTCKGSGFSFTSGYWICWVRQAPGKGLEWIGCIYTGSSGSTYYASWAKGRFTISRSSTTVTLQMTSLTVADTATYFCAGDPSGASSGWDNLWGPGTLVTVSS
VL: AFELTQTPSSVEAAVGGTVTIKCQASQTIVSWLAWYQQKPGQRPKLLILYASNLASGVSSRFRGSGSGTDYTLTISDLECDDAATYYCQSYYFSTSSPDMYAFGGGTKVEIKR
notes: Rabbit variable regions with F1332m and hkOMC constant regions; also called DQN0100aa
In the case of B5, in test [1], the Kd was 1.94 nM, the koff is 0.000458 s⁻¹ and the kon was determined as 236000 M⁻¹ s⁻¹. In addition, the “IC50 (read off the curve)” value in test [3] is roughly 0.1 µg/mL.

B6: DQN0157 (antibody, human IgG1, kappa, V domains shown)
VH: QSLEESGGDLVKPGASLTLTCTASGFSFSSSYYMCWVRQAPGKGLEWIACIYTGSSGSTYYPSWAKGRFTISKTSSTTVTLQMTSLTAADTATYFCARVRAGSGYYYFNLWGPGTLVTVSS
VL: DIVMTQTPSSVSAAVGGTVTIKCQASQTIYSGLAWYQQKPGQPPKLLIYDASDLASGVPSRFSGSGSGTEFTLAISGVQCDDAATYYCHGDYYGGSGTFFWTFGGGTKVEIKR
notes: Rabbit variable regions with F1332m and hkOMC constant regions; also called DQN0157cc
For the molecule B6, in test [1], the Kd was found to be 22.6 nM, the koff turned out to be 0.0033 s⁻¹ and the kon was found to be 146000 M⁻¹ s⁻¹. In test [6], the binding result is on record as “no binding”. Also, the “IC50 (read off the curve)” value in test [3] was roughly 0.1 µg/mL.

B7: DQN0139 (antibody, human IgG1, kappa, V domains shown)
VH: QSLEESGGRLVTPGTALTLTCTVSGFSLSSYAMGWVRQAPGKGLEYIGWTSPGDSAYYASWTKGRFTISRTSTTVELKITSPTTEDTATYFCARDAAYIGHWAFNLWGPGTLVTVSS
VL: DVVMTQTPASVSAPVGGTVTINCQASESIYSNLAWYQQKPGQPPKLLIYGASTLESGVPSRVKGSGYGTQFTLTISDLECADAATYYCQQYYGSSSTAFTFGGGTKVEIKR
notes: also called DQN0139bb
As for B7, in test [1], the Kd worked out at 11.3 nM. For the same molecule, in test [3], the “IC50 (read off the curve)” value was roughly 0.3 µg/mL.
